Measurements from article PMC11179954 (MedComm, 2024).

Tests used:
wildtype Y2R = molecular target: T1, wildtype Y2R (Homo sapiens, UniProt P49146); assay: GloSensor cAMP inhibition assay in HEK293 cells; type: cell-based; conditions: Figure 1C
T1 construct: Flag; expressed in transfected cells; host or cells: HEK293
T1 sequence (P49146 1-381): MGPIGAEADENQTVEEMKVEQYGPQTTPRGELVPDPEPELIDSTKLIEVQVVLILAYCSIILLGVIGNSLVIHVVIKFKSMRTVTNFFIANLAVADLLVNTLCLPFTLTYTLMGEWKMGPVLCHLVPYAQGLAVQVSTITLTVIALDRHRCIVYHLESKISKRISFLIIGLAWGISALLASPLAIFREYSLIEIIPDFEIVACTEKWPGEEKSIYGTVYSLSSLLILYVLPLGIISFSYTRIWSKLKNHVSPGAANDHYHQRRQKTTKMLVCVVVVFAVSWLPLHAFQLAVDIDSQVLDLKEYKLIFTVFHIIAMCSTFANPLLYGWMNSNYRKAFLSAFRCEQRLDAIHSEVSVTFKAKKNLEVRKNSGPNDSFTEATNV
Protocol: EM density map11, the coordinates were subsequently manual adjustment and rebuilding in COOT 12. Real space refinement was performed in Phenix program 13.
The model statistics were finally validated by using MolProbity 14 in Phenix. The refinement statistics are presented in supplemental information table S1. UCSF Chimera11, Chimera X 15 and PyMOL (https://pymol.org/2/) were used to generate the […]
Cyclic adenosine 3′,5′-monophosphate (cAMP) assay.
To measure the ligand-induced Gi signaling activation potency of wild -type NPYR or mutants, the GloSensor cAMP assay (Promega) was conducted following a previous study. Briefly, HEK293 cells were co -transfected with the GloSensor plasmid and various NPYR constructs or pcDNA3.1 (as a negative control) plasmids using Polyethylenimine Linear (PEI, YEASEN) in 6 -well plates. Following a 4-hour incubation period, the cells were transferred to fresh medium. After 24 hours, they were harvested and suspended in assay buffer ( HBSS with 10 mM HEPES, pH 7.4), supplemented with a 3% v/v dilution of D -Luciferin-Potassium Salt (YEASEN).
Following a subsequent 1 -hour incubation, ligands, diluted in assay buffer with forskolin, were introduced to the cells. Subsequently, the cells wer e incubated for 30 minutes in a light-free environment at room temperature […] signals were measured using a Synergy H1 microplate reader (BioTek). […]

[1] = molecular target: T2, wild-type human Y1R (NPY1R-WT, hY1R) (Homo sapiens, UniProt P25929); assay: GloSensor cAMP inhibition assay in HEK293 cells; type: cell-based; conditions: wildtype Y1R, Figure 1B
T2 construct: Flag; expressed in transfected cells; host or cells: HEK293
T2 sequence (P25929 1-384): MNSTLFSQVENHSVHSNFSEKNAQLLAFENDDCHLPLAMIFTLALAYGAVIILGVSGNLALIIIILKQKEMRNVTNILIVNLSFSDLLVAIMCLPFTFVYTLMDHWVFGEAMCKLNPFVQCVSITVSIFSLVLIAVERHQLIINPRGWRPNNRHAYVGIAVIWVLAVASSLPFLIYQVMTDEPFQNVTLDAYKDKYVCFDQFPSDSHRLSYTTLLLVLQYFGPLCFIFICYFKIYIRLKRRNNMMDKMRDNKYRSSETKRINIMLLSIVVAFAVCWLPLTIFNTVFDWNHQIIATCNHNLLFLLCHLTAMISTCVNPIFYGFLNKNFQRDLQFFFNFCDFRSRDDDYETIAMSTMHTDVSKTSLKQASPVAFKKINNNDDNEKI
Protocol: Following a subsequent 1 -hour incubation, ligands, diluted in assay buffer with forskolin, were introduced to the cells. Subsequently, the cells wer e incubated for 30 minutes in a light-free environment at room temperature Fluorescence signals were measured using a Synergy H1 microplate reader (BioTek). GraphPad Prism 8 (GraphPad Software) was used to processing data using the nonlinear regression dos e-response function. Results were represented as the mean ± s.e.m. from three independent experiments . All experiments were repeated at least three times.

Substance	Y2R activation compared with NPY (in words) (wildtype Y2R)	reduced Y1R activation compared to NPY [1] [folds]
NPY^3−36: N-terminal truncated NPY variant, processed by dipeptidyl peptidase IV	slightly reduced Y2R activation	> 50
NPY^13−36: N-terminally truncated NPY	–	> 50
